B1: Br031718: GH3 protein, Bra031718 (protein, listed as Brassica rapa)
chain: MSLGCDLSVLEELTSNAKQIQDDVLTKILKANTNTEYLSRFLEGSSEKELFKKNVPVVSYEDVKPYIDRVANGEPSDILSGKPITAFFRSTGTSSGEKKIFPANDNFEDILLGLALSSLVMSKHVDGYKQGKVMIFKFIQPISTTPCGLPLAPSITIIMKSKCYRSPGKRSTTPDEIIMCTDPKQSMYCQLLCGLVQRDEVVSVGALFASVLVQIIRFLEKYWKELCSNIRSGHVSDWITDHCCRDSVSTILGEPNPELADLIENECGQESWQGIVSRLWPKTKCVETIVTGIMAQYIPALEFYSDKLPIVSSIYGSSETFFGLNVNPLCKPQHVSYTFLPNMSYFEFIHVDADGEATGEIVDLVDVKSGGYYEPLVTNYSGLYRCRVGDVLHVTGFYNNAPQFRFVRRKNTVLSIFVESTTEEDVLKALDRATVVLESSDLMLTGFTCFGDVSTVPGHYVFYLELKAKVNNDTNVLLLDEKVLVEYCCVMEESLSSFYRSLRRKDGPIGPLEVRVVQQGTFDSLMEFFVSRGASITQYKTPICINSVEASRVLEDKVLARFFSDKSPTI
B2: Sm87623: GH3 protein, Selmo1|87623 (protein, listed as Selaginella moellendorffii)
chain: MDATAILSAIACDEQALGFMEHVTRHVSSVQDYVLQLLLEANAGTDYFQRHGLYGIPTKEEFRRLLPITTYSDMEADFQRLANGDESKTICAARVLEMLTSSGTSGGKQKLFPKSPSYDQEFVALNRVARAALNKKAPYASRGKSLQFFYVRKPGITSGGVTTTSGLSGYFTSPAFRQRKLDPESGYTSPDQVILCVDYQQASYCHLLCGLTQSQEVVSIGAPFASTLVRSLKALKDLWQELCVDIETGRVNDNIVSDLSVKHAVNALLKPDPKLAALVRRECSKSNWRGIVRRLWPRARIIQAIVTGSMQQYVPAIDFFSDGLPIASSIYAASECSTLGVNLSPVCSPYDVRYSPFPCFVYYEFLPVSSSSSSSPRRDDLVQLAEVELGREYELVITTRAGLYRYRVGDVLKVVGFKNSMPQFSFVGRAGVLLSVDTDKTDEVELHTAVTTAAAVMAKRNRGDVRLLDYTSRVNLSSQPGHYVVYWELSLDAAMESLEAELRECCSVMEESLSVVYRRNRREGSVGALEIKVVEPGTFDRIVDHVVFVGQGSIGQYKTPRCARDPAVLRILESSVVESSRAR
B3: Sm93250: GH3 protein, Selmo1|93250 (protein, listed as Selaginella moellendorffii)
chain: MDPALFRDDIESKTKDAAAVQANLLSQMMELNGETEYLRRYGGRFDSLPIIEYHDVADEVQRIANGDTSPILTAEPVVRFFKSSGTVTGEPKLIPATSKSLELLFRRPVYMMESDVCLGFLFAKPENKSPGGLPVSTTSSMFFKVQGENLEKMFTSPMKLLLAPDINQSLYCQLLCGLIRSEDVTQVFAALAITLVEALRLLEEAWSELADDVQTGTLNSKITDPTLRSSLSLCLRPNLKLAQSIRKECTADNAWCGIVERLWPKTKVIVTITTGGMAPYAPAVRKYGGSVPIVSGDYVCTECVLGFNLDPFCPPESVSFTIHPEYAYYEFLHYPQKLTDGSTVKLVDVKVGEEYELVVSTWSGLYRYKVGDIVRVTGFHNFSPNISFVHRLNAELDIAGERSTEAELQVAVQKSQHCLPASQELVDFTCHQDGQRYLIFWEIKNGDSLNPMILETCCCVLDTSLTERYKQRRENGLIGPLRLCIVRGKTFKALQQYSLEKGINPTQYKTPRCITSPEMIAILQAGITQDCQTPA
B4: Sm85812: GH3 protein, Selmo1|85812 (protein, listed as Selaginella moellendorffii)
chain: MHSICLKSMEHATKNAAVIQRELLQQILEKNAGTEYLTRHGLDEESNLVDGFHKLPLVEYNDIEADIKRIADGDTGRILCSDPISQFFISSGTTTGRSKLIPVTKEANSRFFRPPLISPAWHRVFTINPDETYLAFWFASKQSLTKGGFKAETVTTSGLNSAHFKRAAASFVTPHKIFQSTSMYQCLYCHLLCGLLRREEVTVVISAFAFALTEAFRVLEQVWSELLEDIEAGSLSSRITDPILRLAMSGIAPPSPELAEQLRREFRSFSMDGIVQRLWPNAKSVVAVTTGAMAPYAPRLRALAGKTPLVCGNYFSSECLIGINLSPASSPATFTVNPEFAYFEFLSYHDGETKLNGLEEQRPVGLTEVTIGEKYEIVVTTRSGLYRYRLGDVVQVAGFFNSSPSLRFLFRRNVVMSVATDKTDEFELQAVVHKASLLLRSSSQLHDFAGYADFSSIPGHYAIFWELNHGGSMDPSTLQDCCELLDVSLNDPYLRGRSSGAIGPLKLCVVRGGSFRELFEQHVARGGSGSQYKSCRCVASKQAIDLLRRNTLQQALSSKFPNPWKLSIKSLELDQ
B5: AtGH3-11: GH3 protein, accession AAD23040 (protein, listed as Arabidopsis thaliana)
chain: MLEKVETFDMNRVIDEFDEMTRNAHQVQKQTLKEILLKNQSAIYLQNCGLNGNATDPEEAFKSMVPLVTDVELEPYIKRMVDGDTSPILTGHPVPAISLSSGTSQGRPKFIPFTDELMENTLQLFRTAFAFRNRDFPIDDNGKALQFIFSSKQYISTGGVPVGTATTNVYRNPNFKAGMKSITSPSCSPDEVIFSPDVHQALYCHLLSGILFRDQVQYVFAVFAHGLVHAFRTFEQVWEEIVTDIKDGVLSNRITVPSVRTAMSKLLTPNPELAETIRTKCMSLSNWYGLIPALFPNAKYVYGIMTGSMEPYVPKLRHYAGDLPLVSHDYGSSEGWIAANVTPRLSPEEATFAVIPNLGYFEFLPVSETGEGEEKPVGLTQVKIGEEYEVVITNYAGLYRYRLGDVVKVIGFYNNTPQLKFICRRNLILSINIDKNTERDLQLSVESAAKRLSEEKIEVIDFSSYIDVSTDPGHYAIFWEISGETNEDVLQDCCNCLDRAFIDAGYVSSRKCKTIGALELRVVAKGTFRKIQEHFLGLGSSAGQFKMPRCVKPSNAKVLQILCENVVSSYFSTAF

Tests used:
Format in all cases: biochemical
[1] = LC-MS assay of GH3 conjugation of 2,4-D with Asp or Glu; conditions: LC-MS; for Detected auxin conjugates: 2,4-D-Asp: 2,4-D with Asp; for Detected auxin conjugates: 2,4-D-Glu: 2,4-D with Glu
In short: (§1)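 N-His-tagged GH3 homologs expressed in E. coli C41(DE3) and Ni-NTA purified (44 to 164 μg/mL) were incubated 3 hours at 30° C. in 20 mM Tris-HCl pH 8.0, 5 mM MgCl2, 1 mM DTT with 5 mM each of auxin, ATP and Asp or Glu. Conjugates were quantified by LC-MS against standards.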

[2] = LC-MS assay of GH3 conjugation of dicamba with Asp or Glu; conditions: LC-MS; for Detected auxin conjugates: Dicamba-Asp: dicamba with Asp; for Detected auxin conjugates: Dicamba-Glu: dicamba with Glu
In short: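 Dicamba–amino acid (Asp or Glu) conjugates formed by purified his-tagged GH3 enzymes were detected by LC-MS on an AB Sciex 4000 QTrap with Shimadzu Nexera UHPLC and a Phenomenex Luna 3 μm Phenyl-Hexyl column, after 20× dilution of the supernatant in water. Standards were used to quantify conjugates. Protein concentration was determined by Bradford assay.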

[3] = LC-MS assay of GH3 conjugation of IAA with Asp or Glu; conditions: LC-MS; for Detected auxin conjugates: IAA-Asp: IAA with Asp; for Detected auxin conjugates: IAA-Glu: IAA with Glu
In short: as §1

Row | Molecule | Detected auxin conjugates: 2,4-D-Asp [1] | Detected auxin conjugates: 2,4-D-Glu [1] | Detected auxin conjugates: Dicamba-Asp [2] | Detected auxin conjugates: Dicamba-Glu [2] | Detected auxin conjugates: IAA-Asp [3] | Detected auxin conjugates: IAA-Glu [3]
1 | B1 | No | No | No | No | No | No
2 | B2 | Yes | No | No | No | Yes | No
3 | B3 | No | No | No | No | Yes | No
4 | B4 | No | No | No | No | Yes | No
5 | B5 | No | No | No | No | No | No
